The supplement of paper PMC10567573
± gives the standard deviation.

Test: protein stability index of a GFP-peptide fusion (GPS, HEK-293T) (PSI 1-6); higher = more stable
Conditions: c terminus: a fixed tail appended
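Further: 24-mer peptide tiles fused after GFP, lentivirally expressed, FACS-sorted into six equal bins by GFP/DsRed ratio, decoded by Illumina sequencing, PSI is the read-weighted mean bin number.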

Sequence	protein stability index (treatment: DMSO)	protein stability index (treatment: MLN4924 1 uM, 8 h)
ELFHTIDTHNTNNLDTEELCEYFS [NECAB1]	3.41 ± 0.28	3.47 ± 0.1
PSLEAGNPAPAAPCPLGEPKTQAC [MYCL]	5.26 ± 0.14	5.32 ± 0.11
MDERLSLLRSPPPPSARHRAHPPQ [KCNA3]	4.55 ± 0.23	4.44 ± 0.19
ALGNLVEGMDFHRFYFENLLAKNS [CAMK2B]	2.19 ± 0.24	2.35 ± 0.079
QRLLGEDKFQWLAGLAPPSLFARA [ANKRD9]	2.59 ± 0.12	2.66 ± 0.28
FWRIDEDYPVQVAPLSNGLCCAFS [WSB1]	2.06 ± 0.43	2.41 ± 0.39
PVLSGAELEKAHLALIDYLTQKRS [VPS39]	3.37 ± 0.26	3.38 ± 0.27
QQTHNIEKAHECTDCGKAFLKKSQ [ZNF649]	3.93 ± 0.3	4.02 ± 0.17
VCGQNWGIVEAMVVCRQLGLGFAS [LOXL2]	3.33 ± 0.11	3.18 ± 2
GWWKRLFTLKEEKPKMYFMTMIVS [ARL6IP1]	2.95 ± 0.66	2.04 ± 0.57
GPPRAPGRSGWPAGGAPGSPIPSP [HES6]	4.32 ± 0.18	4.26 ± 0.2
KPGEGRSALFAGNEWRRPIIQFVE [TRIM29]	2.34 ± 0.35	2.86 ± 0.46
TKLHDIDGVPHLILIASRDIAAGE [KMT5A]	2.36 ± 0.33	2.33 ± 0.25
MSYDEISQLRLVCKRMDLVCQRML [FBXO28]	2.43 ± 0.34	2.25 ± 0.36
RMSYQDPAQLSCLPYLEHVGHNHT [NFE2L1]	2.98 ± 0.2	3.12 ± 0.28
EMVRFLLEAGADQEHKTDEMHTAL [ANKRD17]	2.88 ± 0.38	3.05 ± 0.42
RRQARREAEADKPRRLGRLKYQAP [NOP53]	4.5 ± 0.35	4.6 ± 0.24
VRSQYPNQPTRFGKLLLRLPSLRT [NR2F2]	2.42 ± 0.16	2.49 ± 0.23
ENRRKVLYQRAPRNIHRHVILSEI [TCF25]	2.62 ± 0.073	2.75 ± 0.31
SRRVIAANNRILAERIAKEIQVIP [IMPA1]	2.46 ± 0.34	2.69 ± 0.12
FSSERGPRMCRYVRERDRLGNEYP [CDC25A]	2.93 ± 0.29	2.61 ± 0.58
DREDSPERCSDSDEEKKARRGRSP [CLINT1]	5.59 ± 0.3	5.34 ± 0.25
MDEESELIQPQDQSCWAFLPDLCL [FBXO39]	3.45 ± 0.17	3.34 ± 0.33

Sequence	protein stability index (treatment: DMSO)	protein stability index (treatment: MLN4924 1 uM, 8 h)
SSPQGVQLDIASQSLDQEILLKVK [BCL2L13]	3.58 ± 0.4	3.83 ± 0.1
VKFISNPPSMVAAGSVVAAVQGLN [CCND1]	2.43 ± 0.62	2.42 ± 0.24
NRIGNSGVEEIKGHPFFEGVDWEH [STK38L]	4.32 ± 0.26	4.45 ± 0.21
DEQKEEEEEEGEEEELIRIFQEQQ [FAM9B]	5.51 ± 0.34	5.47 ± 0.29
VRLRTLLCKVLGVLFSVAGGLFVG [CLCN6]	2.87 ± 0.14	2.88 ± 0.17
IQDNGTGIRKEDLDIVCERFTTSK [MLH1]	4.17 ± 0.2	4.46 ± 0.33
PYKCVQPDCGKAFVSRYKLMRHMA [PLAGL1]	2.23 ± 0.31	2.08 ± 0.21
YLLPDTCFRMQINHAIDIICGFLK [OAS1]	2.27 ± 0.3	2.1 ± 0.33
HWNSTIKRKVDTGGFLSESKDCKP [MYBL2]	3.93 ± 0.57	4.12 ± 0.32
KGNRTARIIDKPRVIEVLPRGATA [SEPHS2]	3.64 ± 0.22	3.77 ± 0.2
FALGLGFGGVIAFSSYNKQDNNCH [SLC6A17]	2.01 ± 0.4	2.44 ± 0.52
ELERKLREVMESAVGNSSGSGQNE [FBXO28]	4.11 ± 0.19	4.24 ± 0.38
HEKERPEHKSLESLADGGSASPIK [FANCE]	5.49 ± 0.21	5.31 ± 0.25
LKEMYDADLLEEEVIISWSEKASK [EIF5]	3.33 ± 0.45	3.88 ± 0.44
VVEEILELHIHRLRYLSSIWNILD [PKD2L1]	3.29 ± 0.65	3.04 ± 0.3
KHAGKDPVRDECEERNRFTETREE [FAM9B]	5.54 ± 0.2	5.49 ± 0.2
PWNCILLTKDEAAAHLKLTSIEEG [IQUB]	3.12 ± 0.1	3.44 ± 0.07
YVHHQALLDVKNIAHQNKFGEDMP [HDAC6]	2.83 ± 0.54	3.49 ± 0.57
IELAPLSMPRINHGVLSAEGFLFV [GAN]	3.34 ± 1.1	2.81 ± 0.61
CAKLDSCALGDHGCEHSCVSSEDS [MATN2]	4.91 ± 0.35	4.99 ± 0.38
LLKTLYNSIKNEKLEWAIDEDELR [PSD2]	2.61 ± 0.43	2.07 ± 0.32
SCDDLMGGGGLHSVGTYIIDLLTF [GFOD1]	2.75 ± 0.72	2.41 ± 0.29
QGQAKTPDSMFLAMLAVVSCASIG [CDK11A]	3.36 ± 0.59	3.11 ± 0.63

Sequence	protein stability index (treatment: DMSO)	protein stability index (treatment: MLN4924 1 uM, 8 h)
SESGADTISVNQTRVNLSSDTEST [DLC1]	5.33 ± 0.4	5.3 ± 0.58
EQLLARGYAVNVFDIQQGFDNPQV [NSDHL]	2.77 ± 0.19	3.54 ± 0.24
AADGETTATEELEKTQDDLMKHQT [EPB41L3]	5.62 ± 0.14	5.64 ± 0.14
YDFIVTKARGKSGPLFNFDVHDDV [FAM50A]	2.65 ± 0.23	2.78 ± 0.45
TRHEGSFQVPVLCAVMNVVFITIL [CD69]	2.76 ± 0.55	2.63 ± 0.58
LLKITIPNAFIGSDVVDWLYHNVE [DVL3]	2.31 ± 0.63	2.26 ± 0.28
SPEPGTPAAPTPESFTVHFLPLNS [DNAAF3]	3.55 ± 0.35	3.5 ± 0.22
SAERYNPRTNQWSPVVAMTSRRSG [KLHL20]	4.22 ± 0.061	4.43 ± 0.16
RGHMPEWYTKSFGHLCAAEVVKIR [DLC1]	2.08 ± 0.23	2.42 ± 0.32
LVDQSKKANSPLKGHERTVQYLQH [VPS39]	4 ± 0.3	3.85 ± 0.32
ATIHGAIRLVCSRGNRLKTTSWGL [SCNN1D]	2.46 ± 0.7	2.18 ± 0.24
PLSDKGTTPLQLAIIRERSSCVKI [ASB7]	2.64 ± 0.22	2.81 ± 0.4
CLRCWDQRTIMKPLEYQFKSQIMS [TLE6]	2.14 ± 0.27	2.47 ± 0.48
MSEMAELSELYEESSDLQMDVMPG [EID1]	5.43 ± 0.088	5.25 ± 0.32
LGTPTSSTPRPSITPTKKIELDRT [C2CD2L]	4.94 ± 0.18	4.88 ± 0.24
CSITGDSSRVIAASYDKTVRAWDL [WDR88]	2.57 ± 0.2	2.6 ± 0.2
VDHQGVSWYHWKGFEFSVPFTEMK [TNXB]	2.45 ± 0.55	2.49 ± 0.74
IRRAYPDANLLNDRVLRAMLKAEE [CCND1]	2.96 ± 0.24	3.52 ± 0.47
FVLQAIGIPGWGFSGWISALVVPK [SCAMP3]	3.08 ± 0.53	2.88 ± 0.37
VYSNTIQSIIAIIRAMGRLKIDFG [GNAI1]	2.7 ± 0.53	2.13 ± 0.29
HEQALFIYVHILKDTRMAEEYCHK [VPS39]	2.57 ± 0.62	2.4 ± 0.59
SRTQEPSLGKQKVFIIRKSLLDEL [SOAT2]	2.04 ± 0.31	2.23 ± 0.34
QEALDPGPFDQGSPFAQELLDDGQ [ELF3]	5.58 ± 0.24	5.32 ± 0.14

Sequence	protein stability index (treatment: DMSO)	protein stability index (treatment: MLN4924 1 uM, 8 h)
RAQLHVQGLLHEAGSTDDRIVVPQ [SPNS1]	4.15 ± 0.1	4.23 ± 0.22
VRLKPALQRLDFSVRGYMMSKQRE [RETREG3]	2.64 ± 0.48	2.7 ± 0.44
LRNTLKSTSEDSLVKQECIKEVVE [FAN1]	4.63 ± 0.3	5.01 ± 0.23
TVGTPDYIAPEVFMQTGYNKLCDW [STK38L]	2.82 ± 0.16	2.97 ± 0.37
QLSIERGKVLQNKQAEICQLEEKL [CCDC89]	4.58 ± 0.4	4.45 ± 0.37
TLVSRAHQLVMEGYNWCHDRNVVT [PPP2CA]	2.27 ± 0.23	2.21 ± 0.13
TGTALRFRVLCTAPAKYTVFDAEG [MOSPD3]	2.49 ± 0.95	2.54 ± 0.41
VAAGEKSILTDNPTWIIDPIDGTT [IMPA1]	3.92 ± 0.19	4.03 ± 0.2
NAILQLVKKYKSMKLEKEEFVTLK [ESRRG]	2.24 ± 0.37	2.29 ± 0.12
VKALEDFEDLCDRVFSDEDSELDN [FAM9B]	5.34 ± 0.26	5.28 ± 0.27
KDQRNPPSLGRVLPDPREACGSSS [RBMY1A1]	4.78 ± 0.17	5.18 ± 0.095
VVMNLDSRLLIFPLYICCNFLYIS [GMCL1]	2.59 ± 0.59	2.94 ± 0.36
QVLRNNPDALSDVGEVPYWVLEPV [ELOA2]	2.92 ± 0.52	3.34 ± 0.44
ELGVIFYNCSCLVLDLQRIFALYS [PLD5]	3.24 ± 0.39	3.29 ± 1
VQRVMAQALGIPATECEFVGSLPV [LPCAT4]	2.78 ± 0.25	2.76 ± 0.3
QRAWVRALNEQACRNGSSIQIAFE [C2CD2L]	2.46 ± 0.34	2.69 ± 0.16
ITDLPRIDVSKREPPPVKQELPPY [EFHC1]	4.37 ± 0.033	4.45 ± 0.17
EDLTAKRKRMKMDKTCSKTKNKSK [FAM9B]	4.98 ± 0.43	5.16 ± 0.34
LLYAQGLLAIQFLEFFYGIATATE [SLC19A2]	3.53 ± 0.64	3.2 ± 0.037
KQKVSRIERSSSFSSITDSTMSLN [DVL3]	4.27 ± 0.049	4.43 ± 0.16
